Data taken from patent US20260364214A1, “MULTIVALENT FIBROBLAST ACTIVATION PROTEIN LIGANDS FOR TARGETED DELIVERY APPLICATIONS” (Philochem AG, priority 2022, published 2026).

How the values were obtained:
HT-1080.hFAP tumors = assay: Quantitative in vivo MMAE release in tumor and healthy organs; design: species or system mouse (athymic Balb/c AnNRj-Foxn1); conditions: 250 nmol/kg; vs ESV6-GlyPro-MMAE and Bi-ESV6-GlyPro-MMAE
Excerpt: The ESV6 binding moiety in monomeric, dimeric or trimeric form was conjugated to an identical linker-payload structure based on a Glycine-Proline linker and an MMAE cytotoxic moiety. The three conjugates: (i) ESV6-GlyPro-MMAE—corresponding to Conjugate 58a of EP3891138B1—, (ii) Bi-ESV6-GlyPro-MMAE—corresponding to Conjugate 11 of WO2022/171811A1, and (iii) Tri-ESV6-GlyPro-MMAE—corresponding to Conjugate 9 of the present invention—, were compared in a tumor mouse model to study the efficacy of release of the MMAE cytotoxic moiety into the tumor.
HT-1080.hFAP tumors were implanted into the right flank of athymic Balb/c AnNRj-Foxn1 mice and allowed to grow to an average volume of approximately 200 mm^3. Mice were injected with the three conjugates at a dose of 250 nmol/kg and sacrificed at different timepoints after administration. Fresh blood was collected in lithium heparin tubes (BD Microcontainer LH Tubes), vortexed, and centrifuged (15,000 g, 15 minutes). […] Peak areas of analytes and internal standards were integrated, and corresponding ratios were calculated. The ratios were then transformed into pmol/g of wet tissue using single-concentration external calibration points and corrected by the total weight of the sample analysed. The percentage of injected dose per gram (% ID/g) was finally calculated by normalizing the value based on the total dose injected into the mouse. […]

[1] = Tolerability (body weight change) of MMAE conjugates in HT-1080.hFAP tumor bearing mice; format: in vivo, mouse (athymic Balb/c AnNRj-Foxn1); conditions: 50 or 125 nmol/kg
Procedure: The anti-cancer efficacy of (i) ESV6-GlyPro-MMAE (50 or 125 nmol/kg) —corresponding to Conjugate 58a of EP3891138B1—, and (ii) Tri-ESV6-GlyPro-MMAE (50 or 125 nmol/kg) according to the present invention was assessed in athymic Balb/c AnNRj-Foxn1 mice bearing HT-1080.hFAP tumor in the right flank. Therapy experiments started when the average volume of established tumors had reached 80-100 mm3. Body weight of the animals and tumor volume were daily measured and recorded. Tumor dimensions were measured with an electronic caliper and tumor volume was calculated with the formula (long side, mm)×(short side, mm)×(short side, mm)×0.5. Animals were euthanized when one or more termination criterium indicated by the experimental license was reached. Prism 7 software (GraphPad Software) was used for data analysis.

For `CC[C@@H](C)[C@@H]([C@@H](CC(=O)N1CCC[C@H]1[C@H](OC)[C@@H](C)C(=O)N[C@H](C)[C@@H](O)c1ccccc1)OC)N(C)C(=O)[C@@H](NC(=O)[C@H](C(C)C)N(C)C(=O)OCc1ccc(NC(=O)[C@@H]2CCCN2C(=O)CNC(=O)CCCCCN2C(=O)CC(SC[C@H](NC(=O)[C@H](CC(=O)O)NC(=O)[C@H](CCCCN)NC(=O)[C@H](CC(=O)O)NC(=O)CCC(=O)NC(COCCC(=O)NCCNC(=O)CCC(=O)Nc3cccc4c(C(=O)NCC(=O)N5CC(F)(F)C[C@H]5C#N)ccnc34)(COCCC(=O)NCCNC(=O)CCC(=O)Nc3cccc4c(C(=O)NCC(=O)N5CC(F)(F)C[C@H]5C#N)ccnc34)COCCC(=O)NCCNC(=O)CCC(=O)Nc3cccc4c(C(=O)NCC(=O)N5CC(F)(F)C[C@H]5C#N)ccnc34)C(=O)O)C2=O)cc1)C(C)C` (stereo in doubt) [Tri-ESV6-GlyPro-MMAE], the “MMAE release in tumor and healthy organs, in words” value (HT-1080.hFAP tumors) was “cleaner biodistribution profile, with high and prolonged accumulation at the tumor site, and lower release in the healthy organs” and the “tolerability (body weight change), in words” value [1] was “well tolerated”.
